{"source": "paper PMC8519427", "about": "“High affinity associations with α-SNAP enable calcium entry via Orai1 channels” (PLoS ONE, 2021)", "binders": {"B1": {"name": "MBP-Stim1 408–442 (CC3 domain) (domain or fragment, human, UniProt Q13586 408-442, looked up)", "chain": "KILTAKQALSEVTAALRERLHRWQQIEILCGFQIV", "notes": "Cloned into pMAL-c5X in frame with MBP; also called Stim1-CC3; source: E. coli LEMO21(DE3), purified by immobilizing on amylose resin"}}, "molecular_target": "T1, human α-SNAP with an Avitag and a C-terminal 6xHis tag (human, UniProt P54920 1-295, biotin (in vitro biotinylated using BirA ligase; Avitag))", "T1 construct": "alpha-soluble NSF attachment protein (α-SNAP), human, amplified from HEK 293 cDNA; The methods describe a single preparation; The biotinylated protein was captured on streptavidin tips for BLI; also called biotinylated α-SNAP; Avi-Tagged human α-SNAP; source: E. coli LEMO21(DE3), pET28b, purified; in vitro biotinylated with BirA ligase; not shown: Avitag, C-terminal, kept", "T1 sequence (looked up)": "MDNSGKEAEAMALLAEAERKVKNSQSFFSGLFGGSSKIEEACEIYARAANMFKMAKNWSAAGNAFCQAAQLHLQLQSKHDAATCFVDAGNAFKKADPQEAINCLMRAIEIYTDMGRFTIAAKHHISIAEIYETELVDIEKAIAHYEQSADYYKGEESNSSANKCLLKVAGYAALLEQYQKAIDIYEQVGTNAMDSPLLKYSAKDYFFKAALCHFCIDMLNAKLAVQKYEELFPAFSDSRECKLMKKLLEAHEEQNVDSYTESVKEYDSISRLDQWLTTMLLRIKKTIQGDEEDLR", "assay": "pull-down; MBP- or GST-tagged Stim1 or Orai1 fragments immobilised on amylose or glutathione resin, incubated with 20–50 nM α-SNAP in Ringer's buffer with 0.1% NP-40 and 2 mM imidazole, 1 hr at 4°C; washed thrice; Western blot for α-SNAP", "details": "both partners purified"}
{"binder": "B1", "values": [{"measurement": "binding result", "result": "binds"}]}
